Square brackets hold non-standard residues; d marks the D form. Ends that are not written are not given here. pGlu = O=C1CC[C@@H](C(=O)O)N1
How the values were obtained:
[1] = system: aged rats and AD model rats
Method: The arginine vasopressin (AVP) concentration and AQP4 concentration in the brain are assayed with aged rats and AD model rats. Between placebo groups and intranasal AVP spray groups, the expression amount of AQP4 is assessed and simultaneously amyloid 3 (AB) proteins (and/or tau proteins) are assayed. The assays of AQP4 and AB are carried out with an immunofluorescent-antibody assay. The measured concentration of each of AB (and/or tau) is compared (throughout all the brain and each site) at each time point, i.e., prior to administration, at one week after administration, at one month after administration, and at three months after administration.
In this assay, the comparisons are carried out between the above groups and intravascularly AVP received groups.

V1aR receptor (V1aR) = V1aR receptor (V1aR) (Homo sapiens, UniProt P37288); test: V1aR agonist activity of AVP fragments compared with AVP; conditions: no method or data given
Chain of V1aR receptor (V1aR) (P37288 whole entry, species assumed, the tested form may be a part): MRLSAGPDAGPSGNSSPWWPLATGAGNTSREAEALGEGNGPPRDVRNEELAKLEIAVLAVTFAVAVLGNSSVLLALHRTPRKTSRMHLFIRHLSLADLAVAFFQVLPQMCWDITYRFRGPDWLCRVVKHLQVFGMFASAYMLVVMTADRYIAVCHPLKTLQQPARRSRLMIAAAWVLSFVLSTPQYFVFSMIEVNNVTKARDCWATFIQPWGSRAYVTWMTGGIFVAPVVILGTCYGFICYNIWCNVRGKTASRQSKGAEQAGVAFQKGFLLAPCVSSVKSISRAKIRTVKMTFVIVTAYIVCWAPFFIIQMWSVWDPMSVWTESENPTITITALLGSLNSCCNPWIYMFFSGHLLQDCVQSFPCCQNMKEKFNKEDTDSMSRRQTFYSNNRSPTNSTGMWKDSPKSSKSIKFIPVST

Row | Substance | V1aR agonist activity relative to original AVP (V1aR receptor (V1aR)) | also measured
1 | 8-arginine-vasopressin [AVP] | – | correlation between the concentration of AVP in the brain and the expression amount of AQP4 ([1]; aged rats and AD model rats, intranasal AVP spray vs placebo, immunofluorescent-antibody assay): There is a correlation; correlation of brain AVP concentration and AQP4 expression with the amount of AB reduction ([1]; aged rats and AD model rats, prior to, one week, one month and three months after administration): correlate with the amount of AB reduction; effectiveness of intranasal AVP administration ([1]; compared with placebo groups and intravascularly AVP received groups): effective
2 | AVP (4-8): AVP fragment (QNCPR; Arg-vasopressin; UniProt P01185 23-27, looked up, fragment) | several-fold superior to original AVP | –
3 | AVP (4-9): AVP fragment (QNCPRG; ends and bridges not checked; UniProt P01185 23-28, looked up, fragment) | several-fold superior to original AVP | –
4 | AVP (5-8): AVP fragment (NCPR; Arg-vasopressin; UniProt P01185 24-27, looked up, fragment) | several-fold superior to original AVP | –
5 | AVP (5-9): AVP fragment (NCPRG; ends and bridges not checked; UniProt P01185 24-28, looked up, fragment) | several-fold superior to original AVP | –
6 | pGlu-Asn-Ser-Pro-Arg-Gly-NH2 acetate ([pGlu]NSPRG-NH2; also: acetate salt) [NC1900, AVP fragment] | several-fold superior to original AVP | –

Reference: patent publication US20240316143A1, “THERAPEUTIC AGENTS AND/OR PHARMACEUTICAL COMPOSITIONS FOR NEUROCOGNITIVE DISORDERS” (priority 2023, published 2024)
